15 molecules from patent US20250179196A1 (Janssen / Centocor, published 2025) can be followed below.

Where a chain is given by its changes, count along the chain named.

Broadly, the Kd is a measure of binding affinity in units of concentration. Usually koff stands for the first-order rate constant of dissociation. A word on the kon: it is the second-order rate constant of association.

For assay [1], the target named is T1, Recombinant human IL-23 receptor (IL-23R) extracellular domain (ECD) protein (human, UniProt Q5VWK5 24-355).
T1 construct: also called human IL-23R ECD; hu IL-23R ECD
T1 sequence: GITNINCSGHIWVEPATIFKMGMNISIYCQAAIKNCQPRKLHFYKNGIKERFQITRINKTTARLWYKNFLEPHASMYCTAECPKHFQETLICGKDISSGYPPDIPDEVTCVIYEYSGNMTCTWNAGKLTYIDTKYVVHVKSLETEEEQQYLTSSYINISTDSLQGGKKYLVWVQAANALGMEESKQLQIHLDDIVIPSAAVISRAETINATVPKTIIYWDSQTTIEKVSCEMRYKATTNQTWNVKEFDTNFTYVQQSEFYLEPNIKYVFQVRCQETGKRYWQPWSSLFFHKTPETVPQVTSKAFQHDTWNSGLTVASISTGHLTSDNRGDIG
Kind of assay: SPR Biacore 8K, supernatant, analysis 1. The protocol:
(§1) Affinity by SPR using Biacore 8K. Affinity measurements using Surface Plasmon Resonance (SPR) were performed using a Biacore 8K system (Cytiva). […] Approximately 9000-10000 RU (response units) of mAbs were immobilized. The kinetic experiments were performed at 25° C. in running buffer 1× of (HBS-P+ Buffer 10× (Cytiva #BR100671)+100 μg/ml BSA). To perform kinetic experiments, approximately 150 RU of mAbs were captured followed by injections of human IL-23R or rat IL-23R at concentrations ranging from 0.8 nM to 500 nM (in a 5-fold serial dilution). The association phase was monitored for 3 minutes at 50 μL/min, then followed by 30 minutes of buffer flow (dissociation phase). […] The collected data were processed using Biacore insight Evaluation software (Version 3.0.12.15655). The kinetic analysis of the data was performed using a Langmuir 1:1 binding model. The result for each mAb was reported in the format of Ka (On-rate), Kd (Off-rate) and KD (equilibrium dissociation constant).
For orientation: In SPR one partner is held on a chip, and binding of the other changes the refractive index at the surface.

Assay [2] concerns the target T1, Recombinant human IL-23 receptor …. Kind of assay: SPR Biacore 8K, supernatant, analysis 2. On the procedure:
as §1

B1: I23RB91 (antibody, mouse IgG2a, kappa, V domains shown)
VH: EFQLQQFGPELLKPGASVKISCKASGYTFTDYIMHWVKQSHGKSLEWIGGISPNYGGTGYNGKFKDKATLTVDKSSSTAYMELRSLTSEDSAVYYCARFNNYYYFDYWGQGTTLTVSS
VL: DIKMTQSPSSMYASLGERVTITCKASQDINSYLSWCQQKPGKSPKALIYRANSLVDGVPSRFSGSGSGQDYSLTISSLEYEDMGIYYCLQYDEFPYTFGGGTKLEMKR
notes: mouse immunization; mouse IgG2a/kappa
For B1, in assay [1], the Kd worked out at 5.15 nM, the koff was 0.00011 s⁻¹ and the kon amounted to 21400 M⁻¹ s⁻¹.

B2: I23RB177 (antibody, mouse IgG2a, kappa, V domains shown)
VH: EVQLQQSGPELLKPGASVKISCKASGYTITDYTMHWVKQSHGKSLEWIGGINPNYGGTSYNEKFKDKATLTVDKSSSTAYMELRSLTSEDSAVFYCVRGNIYFDYWGQGTTLTVSS
VL: B1 VL with D1N, I2T, K3Q, C36F, S53R, L89Q, Y96R, G100A, M106L
notes: as for B1
With B2, in assay [1], the Kd is 5.7 nM, the off-rate constant (koff) was 0.000107 s⁻¹ and the kon amounted to 18800 M⁻¹ s⁻¹.

B3: I23RB69 (antibody, mouse IgG2a, kappa, V domains shown)
VH: EVQLQQSGAELVKPGASVKISCKASGYSFTGYNMNWVKQSHGKSLEWIGNINPFYDKTSYNQKFKGKATLTVDKASSTAYMQLNSLTSEDSAVYYCARQLGLKGFAYWGQGTLVTVSA
VL: DIVMTQSHKFMSTSVGDRVSITCKASQDVSTAVAWYQQKPGQSPKLLIYSASYRYTGVPDRFTGSGSGTDFTFTISSVQAEDLAVYYCQQHYSTPWTFGGGTKLEMKR
notes: as for B1
For B3, in assay [1], the Kd was 263 nM, the koff was 0.0493 s⁻¹ and the kon worked out at 188000 M⁻¹ s⁻¹.

B4: I23RB317 (antibody, mouse IgG2a, kappa, V domains shown)
VH: QVQLVQSGAEVKKPGSSVKVSCKASGGTFSSYAISWVRQAPGQGLEWMGGIIPIFGTANYAQKFQGRVTITADESTSTAYMELSSLRSEDTAVYYCARGNGVNYHSELDYWGQGTLVTVSS
VL: EIVLTQSPATLSLSPGERATLSCRASQSVDSFLAWYQQKPGQAPRLLIYTASNRATGIPARFSGSGSGTDFTLTISSLEPEDFAVYYCQQGNSAPFTFGQGTKVEIKR
notes: phage display; human V regions, mouse IgG2a/kappa constant regions
With B4, in assay [1], the Kd amounted to 25.2 nM, the koff was 0.000596 s⁻¹ and the kon was determined as 23600 M⁻¹ s⁻¹.

B5: I23RB31 (antibody, mouse IgG2a, kappa, V domains shown)
VH: EFQLQQSGAEMVRPGASVKLSCKASGYTFTGYWMNWVKQRPGQGLEWIGKIDPSDTETHYNQNFKDKATLTVDKSSSTAYMQLNSLTSEDSAVYYCARWGLGRNFAMDYWGQGTTLTVSS
VL: DIVLTQSPATLSVTPGDRVSLSCRASQSISDHLHWYQQKSHESPRLLIKFASQSISGIPSRFSGSGSGSDFTLSIDSVEPEDVGVYYCQNGHSFPLTFGSGTKLEIKR
notes: as for B1
As to B5, in assay [1], the Kd worked out at 18.9 nM, the koff came out at 0.00123 s⁻¹ and the kon was found to be 65500 M⁻¹ s⁻¹. Moreover, in assay [2], the Kd is 8.55 nM, the koff is 0.000781 s⁻¹ and the kon stood at 91300 M⁻¹ s⁻¹.

B6: I23RB161 (antibody, mouse IgG2a, kappa, V domains shown)
VH: EFQLQQSGPELVKPGASVKISCKASVYAFSSSWMNWVKQRPGKGLEWIGRIYPGDGDTNYNGKFKGKATLTADKSSSTAYMQLSSLTSEDSAVYFCARRYDFGSAMDYWGQGTSVTVSS
VL: DIVMTQSPAILSASPGEKVTMTCRASSSVSYMHWYQQKPGSSPKPWIYATSDLASGAPARFSGSGSGTSYSLTISRVEAEDAATYYCQQWSSNPPTFGGGTKLEIKR
notes: as for B1
For the molecule B6, in assay [1], the Kd is 84.5 nM, the koff worked out at 0.0274 s⁻¹ and the association rate constant (kon) stood at 324000 M⁻¹ s⁻¹.

B7: I23RB321 (antibody, mouse IgG2a, kappa, V domains shown)
VH: QVQLVQSGAEVKKPGSSVKVSCKASGGTFSSYGISWVRQAPGQGLEWMGWISAIFGTTNYAQKFQGRVTITADESTSTAYMELSSLRSEDTAVYYCARHWLQSFDYWGQGTLVTVSS
VL: DIQMTQSPSSLSASVGDRVTITCRASQSIGGDLNWYQQKPGKAPKLLIYAASSLQSGVPSRFSGSGSGTDFTLTISSLQPEDFATYYCQQSYSTPLTFGQGTKVEIKR
notes: as for B4
Consider B7, for which, in assay [1], the equilibrium dissociation constant (Kd) worked out at 18.4 nM, the koff was 0.000384 s⁻¹ and the on-rate constant (kon) is 20900 M⁻¹ s⁻¹.

B8: I23RB264 (antibody, mouse IgG2a, kappa, V domains shown)
VH: B7 VH with G33A, W50G, S52I, A53P, T58A, H99R, W100S, L101S, Q102P, S103G
VL: B7 VL with G30D, G31N, A50N, S91P, T94I
notes: as for B4
For the molecule B8, in assay [1], the Kd worked out at 17.9 nM, the koff is 0.000847 s⁻¹ and the kon amounted to 47400 M⁻¹ s⁻¹.

B9: I23RB259 (antibody, mouse IgG2a, kappa, V domains shown)
VH: B7 VH with A53P, H99M, W100M, L101M, F104L
VL: not shown
notes: as for B4
For B9, in assay [1], the Kd was 13.4 nM, the koff worked out at 0.000752 s⁻¹ and the kon amounted to 55900 M⁻¹ s⁻¹.

B10: I23RB319 (antibody, mouse IgG2a, kappa, V domains shown)
VH: B7 VH with V93L, H99P, W100L, L101K, S103A
VL: B7 VL with G30T, G31D
notes: as for B4
For the molecule B10, in assay [1], the Kd is 9.05 nM, the dissociation rate constant (koff) was determined as 8.01e-05 s⁻¹ and the kon came to 8850 M⁻¹ s⁻¹.

B11: I23RB261 (antibody, mouse IgG2a, kappa, V domains shown)
VH: B7 VH with G33A, A53P, I54Y, T58A, H99M, W100Y, L101R, S103G
VL: B7 VL with G30N, G31D
notes: as for B4
Consider B11, for which, in assay [1], the Kd stood at 22.5 nM, the koff is 0.000402 s⁻¹ and the kon turned out to be 17900 M⁻¹ s⁻¹.

B12: I23RB85 (antibody, mouse IgG2a, kappa, V domains shown)
VH: DVQLQESGPGLVAPSQSLSITCTVSGFSFNTYAITWVRQPPGRGLEWLGVLWPGGGISYNLALKSRLTISRDSSKSQVFLEMNSLQTDDTARYYCARNWRHYDGSYAMDFWGQGTSVTVSS
VL: DIVLTQSPLSLFVSLGDQASISCRSSQSLVHSNGNTYLHWYLQKPGQSPKLLIYKVSNRFSGVPDRFSGSGSGTDFTLKISRVEAEDLGVYFCSQSTHVPWTFGGGTRLEIKR
notes: as for B1
As to B12, in assay [1], the Kd worked out at 1.08 nM, the koff was 0.000226 s⁻¹ and the kon was found to be 210000 M⁻¹ s⁻¹. In assay [2], the Kd is 1.43 nM, the koff was 0.000178 s⁻¹ and the kon came to 124000 M⁻¹ s⁻¹.

B13: I23RB45 (antibody, mouse IgG2a, kappa, V domains shown)
VH: QVTLKESGPGILQPSQTLSLTCSFSGFSLSTYGMGVSWIRQPSGKGLEWLAHIYWDDDKRYNPSLKSRLTISKDTSNNQVFLKITSVDTADTATYYCAQRALPLLGQKAPFDYWGQGTTLTVSS
VL: DIVLTQSQKFISTSVGDRVSITCKASQNVRTAVAWYQQKPGQSPKLLIYLPSNRHTGVPDRFTGSGSGTVFTLTISNVQSEDQADYFCLQHWNYPLTFGAGTKLELKR
notes: as for B1
B13: in assay [1], the dissociation constant (Kd) is 21 nM, the koff turned out to be 0.00332 s⁻¹ and the kon amounted to 158000 M⁻¹ s⁻¹. In assay [2], the Kd turned out to be 22.5 nM, the koff was found to be 0.00456 s⁻¹ and the kon was found to be 203000 M⁻¹ s⁻¹.

B14: I23RB180 (antibody, mouse IgG2a, kappa, V domains shown)
VH: QVTLKESGPGILQPSQTLSLTCSFSGFSLSTYGMGVGWIRQPSGKGLEWLANIWWNDSKYHNAALKSRLTISKDTSKNQVFLKIASVDTADTATYYCGRIDGYYECVDVWGTGTSVTVSS
VL: DIQMTQSPASLSASVGETVTITCRASVNIHNYLAWYQQKQGKSPQLLVYNAKTLADGVPSRFSGSGSGTQYSLKINSLQPEDFGSYYCQHFWTTPYMYTFGAGTKLELKR
notes: as for B1
Take B14: in assay [1], the Kd stood at 150 nM, the koff stood at 0.0302 s⁻¹ and the association rate constant (kon) turned out to be 201000 M⁻¹ s⁻¹.

B15: I23RB260 (antibody, mouse IgG2a, kappa, V domains shown)
VH: QVQLVQSGAEVKKPGSSVKVSCKASGGTFSSYGISWVRQAPGQGLEWMGGIIPIFGTANYAQKFQGRVTITADESTSTAYMELSSLRSEDTAVYYCARDFGWSLWFDYWGQGTLVTVSS
VL: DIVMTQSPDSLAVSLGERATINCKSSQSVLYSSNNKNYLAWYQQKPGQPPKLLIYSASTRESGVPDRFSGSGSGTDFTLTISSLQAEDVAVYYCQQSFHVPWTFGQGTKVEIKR
notes: as for B4
Take B15: in assay [1], the Kd was determined as 4.75 nM, the koff came out at 8.72e-05 s⁻¹ and the kon amounted to 18400 M⁻¹ s⁻¹.
